Experiment in all cases: cell-based or functional assay
Test [1] addresses H3 peptide segment (first 30 amino acids of H3) of the phosphorylation indicator, phosphorylated by Msk-1.
Test [2] addresses H4 peptide of the H4 acetylation indicator, acetylated by CBP.
Test [3] concerns the target H3 peptide (first 30 amino acids of H3) of the H3 methylation indicator, methylated by G9a.

As for “14-3-3 domain of the histone 3 phosphorylation indicator”, the YFP/CFP emission ratio increase (FRET) on in vitro phosphorylation by Msk-1 in test [1] amounted to 25%. For “bromodomain of the Drosophila transcription factor TAF250 in the H4 acetylation reporter”, the YFP/CFP emission ratio increase (FRET) on in vitro acetylation by CBP + acetyl-CoA in test [2] turned out to be 11%. For the substance “chromodomain of HP1 in the H3 methylation indicator”, the YFP/CFP emission ratio increase (FRET) on in vitro methylation by G9a + SAM in test [3] is 20%.

Values taken from US20040265906A1.
